# The DeepSol protein solubility set
# Test: soluble on expression in E. coli; label from the status in PepcDB or PDB records
row,Sequence,soluble on expression in E. coli
1,MSLTKFVSAPLICGLALLGALSAAHAQTGIPALPPIAQPLPVPAPAPVTPPAPTVPVPQEPAPVPQPPMPQPSVPQTPAPQKPVTPRPAPAPSRAPLLIQARANVPALVAGKKTTVPVLKTLTIPAERAAQLRQRGEVSASLQADLDTFLKSLAAPRDARFEQQDDGQWAVVQPNGLKVDAQATRAAVAKVLRDPRGVSANVVVTGQVAPQRTLDFFASRGITTFLATGFTSYYGSSPERVKNIHVGAQNFKDRLFEGDVFSFNKFIGPVSERNGYVPGLVIAGDQTASGVGGGICQVSTTVFRTLYGAGLGIVQRQNHSYQVFYYDPQGLDATIYQPQLDLKFANTTGGPIWFQTEWDDQEATLTITAFGQARDYQVQVDAPKTLKTVAPPKDRLIPDASLPAGQRKQVDWAAPGATIEVTRRFTRGGKTFKQDTLRSVYRPWPNIFRVGTKKEGGSHHHHHH,soluble
2,MSMAMSQSNRELVVDFLSYKLSQKGYSWSQFSDVEENRTEAPEGTESEMETPSAINGNPSWHLADSPAVNGATGHSSSLDAREVIPMAAVKQALREAGDEFELRYRRAFSDLTSQLHITPGTAYQSFEQVVNELFRDGVNWGRIVAFFSFGGALCVESVDKEMQVLVSRIAAWMATYLNDHLEPWIQENGGWDTFVELYGNNAAAESRKGQERLEHHHHHH,soluble
3,MGSDKIHHHHHHMNPGIEKYEIRFDFDLKDFTYTSHERIHLAGDWKDIKLDAVRLSVDKVTCNGQPMRFETGQDTVTVKGSFHDKDVIDIDFHAKVSDTLMGLYLSRTKEGTMITTQFESNGARMAFPCVDHPAYKAVFAITVVIDKDYDAISNMPPKRIEVSERKIVEFQDTPKMSTYLLYIGVGKFKYATDKYRDIDLILVSLKDIKSKYPLEIARKSIEFYESYFGIPYALPKMHLISVPEFGAGAMENWGAITFREVALMATENSGSIMKQNAAITIAHEIAHQWFGDLVTMKWWNDLWLNESFATFMSYKTVDSFSKQWDVFADFIRSETGGALRSDSLKNTHPIEVDVKDPDEISQIFDEISYGKGASILRMIEDYAGYEEFRKGISKYLNDHRYGNAEGSDLWTAIEDVSGKPVKRVMEYWIKNPGYPVVSVVKSGNKFRLTQEQFFLDGTRGQGKWPIPLTVMTKSGKKAMLMEESAEIEDMVKVNVNSSGFYRVSYDGESFETVMKNYSKLSNLDRWGLISDLYAFLISGRVSVDDYLARIKGFFEDSDHLIVEEIASQLTGLYLLKPDSNRIRETAASYLSRQVVALGDKQKGEDDKISKIRGIVTQDLAMVDDHFASDLARKFSTLAEDPDLALAKSIAAAKAYGISELASAADKYTDDEIRVRIIAAMGWCSPSDLKSVFELIDKGTIRKQDMLYVFSNMPANPKGRDFFFSNIDRIVALMEHAFEGTGYTSRILETAIPYLGLARYEDVKKKAEQIRKPSYNVGINKGLETLEIVRKLYNKL,not soluble
4,QKKTVQVYRIIAKNTIEERVCQVQAEKQELVSKTLVEDVNFFESLTNEELLRLFE,not soluble
5,MSLKYLIDLHTHTIVSGHAYTTLLENIKQASQIGIKILGTSEHGPKMPGAPHIWYFGNMNKVPRKIYDVTVLRGCEADILNSNGDLDIPERIQNELDYIIASLHDVCIEPGTIEDNTKALLNAMNNPNIDILGHTGNPMYPIDIDAVVSKAKEKNVLIEINNGSLSGSREGSYDNCKKIAQACKKKGVKVILGTDSHISFTIGNFDKVQKLLDSVDMPKELIMNTDEKKIVEYLKAKGKLKNEGHHHHHH,soluble
6,MSLTTRLADIAAQAGVSEATVSRVLNGKPGVAATTRQSVLAALDVLGYERPVRLRQRSEGLVGLITPELENPIFPALAQVIGQALTRQGYTPVLATQTPGGSTEDELTEMLVDRGVAGIIFVSGLHADTSADMQRYDQLRAQGVPFVLVDGFSPKVQAPFISPDDRAAMTLAVTHLVSLGHTRIGLALGPKRFVPVQRKIEGFVRSVQEQLGLSPDDVERELVQHSLYTLEGGQAAATALMDRDCTAVVCASDMMALGAIRAARQRGLDVPKDISVVGFDDSPLIAFTDPPLTTIRKPVPAMGQAAVRTLLEEIGGTPAPHSEFVFMPELVVRGSTASAPGDRNRPEGHHHHHH,soluble
7,GMKDTDETAFLNSLFMDFTSENELELFLKSLDEVWSEDLYSRLSAAGLIRHVISKVWNKEQHRISMVFEYDSKEGYQKCQEIIDKEFGITLKEKLKKFVFKIHNNRGVVVSEFIRST,soluble
8,MVPSFPFQRLPNKPFQNVLKSMSVGNLLSYSMCSEASKSHVTNLKVKINSFEINVTENVHLFVKSEHGPTFNFRTVTSANGNISDDVTPANENEKHRWYKKGFELRNWIEHFLSVLNHSKIDKLNFISQQGERSKNDYLRDSLEGFKVDCFTVQQCSESYQRSIFRNFSPINTFIICATGAESTKAISSALPHNLKDFGYVSRGATWNFSLDNLLLSNSRNLVVIEARFSFPDINMFLKHWLNGSNRRLTNAYFIYTTPLVSEDISKGLPFSIPSEAEISKLPSDLMEHRETMFQLKRKFDSTATIVLKQNNGKHVFNMFVEHF,not soluble
9,MAQASPPRPERVLGASSPEARPAQEALLLPTGVFQVAEKMEKRTCALCPKDVEYNVLYFAQSENIAAHENCLLYSSGLVECEDQDPLNPDRSFDVESVKKEIQRGRKLKCKFCHKRGATVGCDLKNCNKNYHFFCAKKDDAVPQSDGVRGIYKLLCQQHAQFPIIAQSAKFSGVKRKRGRKKPLSGNHVQPPETMKCNTFIRQVKEEHGRHTDATVKVPFLKKCKEAGLLNYLLEEILDKVHSIPEKLMDETTSESDYEEIGSALFDCRLFEDTFVNFQAAIEKKIHASQQRWQQLKEEIELLQDLKQTLCSFQENRDLMSSSTSISSLSY,not soluble
10,MKKVGEYFLDPNLDPGRDHILYKDDEHMVIYLGTQEGLEDVDVNSYLIVSKGKGILIDPGGYKIFTKVLANVSKYIDPKDIEYIYMCHQDPDVAGSIPLWREISNAKIIIHWLWVRFLPHFGFENIRGYAHELQDEGETLNFGATTLEFIPAHFLHSPGHFTVYDRRSKFLFSGDIGIAFPDERYLVVENMERHIQYMRPLHERLMASNKALRLWVNKVRGLDIEAILPQHGAIIPRRFVPRFLDWLENLKVGVDLMR,soluble
11,MGSDKIHHHHHHMSPLEMALLVHRGEFHLRELEPELPLEKFLKNADPKKTRKFLEKCGKEELERQKELIRKHNVKLVSFWEDDYPQHLREIRYPPAVLFVRGDAELLKEKCVGVVGTRRPTSYGVNVTKRFVKLLSEYFVIVSGMAFGIDSVAHKEALSSGGKTVAVLGTGVDVVYPRSNERLFHEIVKNGCVVSEYPMGTRARKHHFPARNRIIAGLSDAIIVTEAPIKSGALITVKFALESGRDVFAVPGDIDRKTSEGTNYLIKSGAYPLTDEEDLETHFGIRRIASPSLDDDKKKIYDLLRSSPKTVDELVEELGWSVSEVLRVISEMELMGMIWFDGGAYRLLG,not soluble
12,MSDDIFRLATVEDASELLKLVNSAFQPIRQLDIDWPSTRADIQMVSENIEHHSAIVLERDGKLISTITIRFPWESETPPSKYPFVWWFATLPEYKGQGAGSKLLTYVEEKVLRDMLKAPALTLGTSARKHPWLADMYRRRGYEVYFEQEKDGDIGVMMHKVLIPERFNPTLLGAPSWA,soluble
13,MGSDKIHHHHHHMVDVLVIGGGNAALCAALTAREAGASVLLLEAAPREWRGGNSQHTRNLRCMHDAPQDVLVESYPEEEFWQDLWRVTDGNTNEALARLVIRTSSQCRDWMRKHGVNFQPPLSGALHVARTNAFFMGGGKALVNAYYRSAERLGVQVRYNTPVHALELHDGEFVAALAGSERITAKACVLAAGGFESNREWLREAWGENARGEWPADNFLIRGTRFNQGVLLKFMMDAGADIIGDPSQSHCVAIDARAPLYDGGICTRVDCVSLGIVVNRDAERFYDEGEDFWPKRYAIWGRLVAQQPGQIGYSIIDSKAIGHFMPPVFPGAQANTLAELACQLGLDAEKFTHTVTQYNQACQPGHFDHTLLDDCATKNLTPAKTHWARPLDAPPYYGYALRPGITFTYLGLKVNERAAVHFAGHPSRNLFVAGEMMAGNVLGKGYTAGVGMSIGTTFGRIAGIEAARAAHKEAQHETA,not soluble
14,MSLLRIRQPKSETVRQFLQTQASRDFSYPMVGATLATPPSEYQVDHTRVRLGHGEESLAQGRIALQKWTQFQLGWVTTFPPALPIQAGEMVAIVARAGGFWWLNACRIVCTIEEPKQFGFAYGTLPAHAESGEERFLIEMDDAGDVWYDILAFSRPNRVSAKLAYPYMRHLQKRFARESAAAMRQAIRPEGHHHHHH,soluble
15,MGSDKIHHHHHHMDPTTMPAPAPINYSQTWTFFEGEWHDGNVPIMGPRTHAAWLGSMVFDGARAFEGVTPDLDQHLARINWSATNFKLNALVDKATWLGLVQDGLKRFAGNAELYIRPMYWAQNGVGGGVLFDPDTTNWCLCIYEAPMPKPTGLSITLSPFRRPTAECAPVEAKAGCLYPNNSRAMMEAKSRGFDNCLLRDMLGHIAELGNSNIFMAKDGVVYTPAANGTFLSGITRQRVIELLRGDGITVLETSLSYRDFETADEIFASGNFAKVQPIIRIDDRSLQPGPFYAKARKLYWEFAHG,not soluble
16,MASTFNPRECKLSKQEGQNYGFFLRIEKDTDGHLIRVIEEGSPAEKAGLLDGDRVLRINGVFVDKEEHAQVVELVRKSGNSVTLLVLDGDSYEKAVKNQVDLKELDQSQREAALNDKKPGPGMNGAVEPCAQPRLCYLVKEGNSFGFSLKTIQGKKGVYLTNIMPQGVAMKAGVLADDHLIEVNGENVENASHEEVVEKVTKSGSRIMFLLVDKETARCHSEQKTQFKRETASLKLLPHQPRVVVIKKGSNGYGFYLRAGPEQKGQIIKDIEPGSPAEAAGLKNNDLVVAVNGKSVEALDHDGVVEMIRKGGDQTTLLVLDKEAESIYSLARFSPLLYCQSQELPNGSVKEGPAPIPAPLEATGSEPTEDAEGHKPKLCRLLKEDDSYGFHLNAIRGQPGSFVKEVQQGGPADKAGLENEDVIIEVNGENVQEEPYDRVVERIKSSGKHVTLLVCGKMAYSYFQAKKIPIVSSMAEPLVAGPDEKGETSAESEHDAHPAKDRTLSTASHSSSNSEDTEM,soluble
17,MSLTPRVNSGGAVVADAYGRPLKDLRIAVTPECNLDCFFCHMEGATESGPMRPGSWSPVLSVEDYDIIGEAASRLGVDSFKLTGGEPLIRGDVDKIVAVLARYGEVSMTTNGILLPLKASSLKRAGLARVNVSLHSISEEVYEKITRRRAVKLALKGVEAALKAGLRVKVNMVLLRGLNEGEFWRLLRLAEDLGFDLQVIEVHPAGRGRKVLSSFRRPIDVVEERLSSMAVAVETGRLHNRRVYRLPSGVRVYLVDPVENPVFCMGCYRVRLTWDGRLLPCIYWKGPYPSVAEALKRGGSREEKVWRVMKILLEANALRRPTYLFRLHDGQEPQAPSTGRGLRLTLPGKAKAERLAYSTLKAPLIEG,not soluble
18,MSRIGLQQLNNSARNSPFGSEKATGTKQIPEPLKLTAQLKKYQPITPSPLASATTITPVLSPFDVFCDDDQEAKNVETQMFEYGTVSTQTIINVPHVQPKITEADLTSEKPTVNYLRVMADRLQMDLDDEMDRNQRLVAELGDLDEKMRKIDDDTEILLEVLADIDEEQQTDEEIGTAQL,not soluble
19,MGHHHHHHSHVVAILGMGWGAGTGLEMPSAASRGASLLNMQSLGLWTWDCLQGHWAPLIHLNSGPPSGAMERSPTWGEAAELWGSHILLPFRIRHKQTLFASLK,not soluble
20,MAHHHHHHSAARRRASGENLQQTRPIAAANLQWESYAEALEHSKQDHKPIGLFFTGSDWCMWCIKMQDQILQSSEFKHFAGVHLHMVEVDFPQKNHQPEEQRQKNQELKAQYKVTGFPELVFIDAEGKQLARMGFEPGGGAAYVSKVKSALKLR,soluble
21,MGSDKIHHHHHHMKKQWNEFVRDRMSEKNLKQEDIAEAIERTQGAVGHWLTGRRSPNFMEVAKMLNATGTDQVILNSDGTIEDIEFIGIPKKGLVKVIGEATMGTDGSVDIEEIHVGYIDIFTTDPKAFCLRVKGSSMEPRIHSGEFVLVEPQSPFSNGDDVFIRTKDGKNMIKILDYQKDGEYRFSSINNDHKPFNLAIDEVELVYYVAGILKKSRFVDLEP,not soluble
